Source: publication PMC13480463 (Science translational medicine, 2021)

Biological target: T1, Fzd3 (receptor of the AP binding assays) (UniProt Q61086 23-666)
T1 sequence (looked up): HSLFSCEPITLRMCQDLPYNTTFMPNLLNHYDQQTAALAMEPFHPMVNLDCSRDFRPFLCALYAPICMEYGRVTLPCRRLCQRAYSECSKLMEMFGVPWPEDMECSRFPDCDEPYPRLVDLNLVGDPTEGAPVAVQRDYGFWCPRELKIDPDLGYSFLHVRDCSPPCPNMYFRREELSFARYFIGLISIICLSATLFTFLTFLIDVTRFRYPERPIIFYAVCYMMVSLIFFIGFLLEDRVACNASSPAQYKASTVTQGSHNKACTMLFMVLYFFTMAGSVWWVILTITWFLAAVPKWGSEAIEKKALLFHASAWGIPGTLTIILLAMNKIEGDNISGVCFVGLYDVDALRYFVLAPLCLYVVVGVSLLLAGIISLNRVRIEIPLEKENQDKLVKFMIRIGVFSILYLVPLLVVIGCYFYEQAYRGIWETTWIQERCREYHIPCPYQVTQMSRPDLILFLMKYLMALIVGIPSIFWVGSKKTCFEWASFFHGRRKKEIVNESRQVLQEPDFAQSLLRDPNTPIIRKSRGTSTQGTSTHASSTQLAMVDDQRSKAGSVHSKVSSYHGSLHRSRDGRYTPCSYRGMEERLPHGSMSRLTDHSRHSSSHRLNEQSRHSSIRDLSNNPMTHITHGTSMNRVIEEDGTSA
Experiment: alkaline phosphatase

B1: AP-tagged TSK protein (TSK-AP) (ligand, mouse, UniProt Q8CBR6 18-354, looked up)
chain: TRPCFPGCQCEEETFGLFDSFSLIRVDCSSLGPHIVPVPIPLDTAHLDLSSNRLETVNESVLAGPGYTTLAGLDLSYNLLTSIMPSAFSRLRYLESLDLSHNGLAALPAEIFTSSPLSDINLSHNRLREVSISAFTTHSQGRALHVDLSHNLIHRLLPHPARASLPAPTIQSLNLSWNRFRAVPDLRDLPLRYLSLDGNPLATINPDAFMGLAGLTHLSLASLQGILHLPPHGFRELPGLQVLDLSGNPKLKWAGAEVFSGLGLLQELDLSGSSLVPLPEMLLHHLPALQSVSVGQDVQCRRLVREGAYHRQPGSSPKVVLHCGDTQESAARGPDIL
  Kd: 0.27 nM
